Measured values from paper PMC11672684 (Cell Reports, 2024).

B1: 43_S0008 (antibody, V domains shown)
VH: QVQLVQSGAEVKKPGSSVKVSCKASGGTFRTFGISWVRQAPGQGLEWMGWIIPIIGTPNYAQKFQGRVIITADESSNTAYMELNSLKSEDTAVYYCAKEGRALLRYFDWLPLDAFDIWGQGTMVTVSS
VL: DIVLTQTPLSLPVSLGDQASISCRSSQSLVHSDGNTYLHWYLQKPGQSPKLLIYKVSNRFSGVPDRFSGSGSGTDFTLKISRVEAEDLGVYFCSQSTHVPPLTFGAGTKLELK
notes: also called mAb 43_S0008; IGHV1-69 + IGHD3-9 mAb 43_S0008; source: Expi293 cells, purified (protein A)
B2: Fab 43_S0008 (Fab, V domains shown)
VH: B1 VH
VL: B1 VL
notes: also called 43_S0008 Fab

Columns and labels:
[1] = target: T1, H1 A/New Caledonia/20/1999 HA (influenza A virus A/New …); experiment: ELISA + BLI; details: both partners purified
[2] = target: T1, H1 A/New Caledonia/20/1999 HA; experiment: cryo-EM structure; details: both partners purified

Binder | binding result [1] | binding result [2]
B1 | binds | –
B2 | – | binds
